Laboratory results taken from paper PMC7401919.
Read-outs that look alike come from different tables or passages of the source.

Key:
[1] = target: lysyl oxidase (rat (endogenous in RRECs)) (UniProt P16636); experiment: co-IP
[2] = target: lysyl oxidase (rat (endogenous in RRECs)) (UniProt P16636); experiment: co-IP; remark: listed apart in the source

UniProt P16636, sequence (P16636 22-411): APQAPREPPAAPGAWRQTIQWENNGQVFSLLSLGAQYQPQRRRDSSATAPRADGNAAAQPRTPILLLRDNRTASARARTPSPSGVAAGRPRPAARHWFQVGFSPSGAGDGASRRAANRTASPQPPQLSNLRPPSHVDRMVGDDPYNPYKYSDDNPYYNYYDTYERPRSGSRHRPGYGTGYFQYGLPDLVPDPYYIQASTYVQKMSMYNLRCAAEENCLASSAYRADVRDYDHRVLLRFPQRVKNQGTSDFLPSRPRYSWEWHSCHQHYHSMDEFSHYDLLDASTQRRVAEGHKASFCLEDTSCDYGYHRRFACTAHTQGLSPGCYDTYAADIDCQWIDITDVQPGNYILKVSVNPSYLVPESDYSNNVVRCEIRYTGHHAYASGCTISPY

LOX bound to Coll IV in HG medium, % of normal-glucose control [1]	LOX bound to Coll IV in HG medium, % of normal-glucose control [2]	LOX bound to FN in HG medium, % of normal-glucose control [1]	LOX bound to FN in HG medium, % of normal-glucose control [2]	Substance
144 % of control	138 % of control	–	–	collagen IV (natural protein)
–	–	168 % of control	156 % of control	fibronectin (from UniProt P04937 25-2477) (natural protein)
